Experimental data as given in the supplement of paper PMC10567573.

B1: STK38L (parent)
chain: RQLAYSTVGTPDYIAPEVFMQTGY
B2: HDAC6 (parent)
chain: KMKTRELHRESSNFDSIYICPSTF

Variants of: B1
Experiment: protein stability index of a GFP-peptide fusion (GPS, HEK-293T) (PSI 1-6); higher = more stable
Settings: c terminus: a fixed tail appended
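Note: lentivirally expressed fusions sorted by FACS into six bins by GFP to DsRed ratio, PSI derived from sequencing read proportions per bin multiplied by bin number.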

Protein stability index of substitutions, site by site:
Q21: L 1.7; G 2.27; F 2.21; I 1.65; R 2.62; K 2.66; S 2.74; H 2.79; W 1.82; T 2.42; V 1.11; C 1.75; D 3.06; Y 1.51; P 2.49; A 2.88; E 3.22; N 2.26
P16: E 2.96; L 1.57; S 2.16; A 2.3; G 1.96; D 2.46; Q 2.35; N 2.81; C 2.29; I 3.9; Y 1.89; R 2.12; M 2.13; T 1.82; F 2.79; K 1.91; H 2.17
V8: E 3.29; R 2.25; G 2.76; D 3.27; W 2.5; C 1.49; K 2.98; L 2.37; P 2.51; N 2.41; F 2.18; M 2.87; Q 2.63; S 2.6; I 2.58; H 2.92; Y 1.74; T 2.83
T10: Q 3.41; H 2.36; N 2.05; C 2.18; Y 1.72; D 2.16; M 2.61; I 1.3; V 2.27; P 2.48; G 3.01; A 2.88; L 1.96; E 2.89; R 2.86; K 2.17; W 1.72; S 1.42; F 1.73
G23: H 2.16; V 1.81; K 2.59; L 2.28; Y 1.86; I 1.99; A 2.34; C 1.6; F 1.52; W 1.6; D 2.83; T 2.06; P 2.35; M 1.63; Q 2.28; E 2.5; R 2.83; S 2.5; N 2.57
F19: V 2.71; R 3.81; M 2.82; N 3.22; G 3.53; E 3.38; D 4.07; H 2.76; I 2.51; Q 3.11; T 3.61; P 3.47; Y 2.61; C 3.08; A 3.68; K 3.12; L 2.92; S 2.78
Y13: S 4.05; W 1.88; V 2.33; K 2.92; H 2.42; D 3.26; E 3.29; P 2.75; F 1.93; N 3.57; C 3; L 2.15; M 2.57; I 3.12; G 3.08; Q 3.01; A 2.9; T 2.92
Y24: T 3.42; N 3.35; D 4.18; H 3.26; M 2.67; F 2.19; W 2.33; K 3.38; A 3.35; Q 3.53; E 4.54; P 3.25; R 3.06; G 3.43; I 2.63; L 2.44
P11: W 2.29; H 2.58; G 3; M 2.18; K 2.59; F 1.85; N 2.78; E 3.13; Q 2.49; A 2.64; D 2.36; T 2.44; I 2; C 2.57; S 2.63; V 1.89; L 2.2; R 1.8; Y 2.57
E17: S 2.21; D 2.79; Q 2.22; C 1.8; F 1.9; V 1.83; R 2.71; T 1.98; P 2.12; N 1.97; H 2.22; G 2.39; L 1.76; A 2.08; M 1.68; Y 1.78; I 2.17; K 2.08; W 1.44
G9: V 1.98; C 1.97; K 2.24; E 2.71; W 1.89; T 2.7; N 2.62; F 2.27; I 2.17; A 2.63; R 2.65; D 3.15; H 2.42; S 2.37; M 2.59; Y 2.9; P 2.6; Q 2.77; L 3.14
V18: D 3.57; A 2.46; P 2.31; L 1.8; W 1.92; G 3.16; E 3.62; I 2.09; N 2.97; K 2.25; F 2.28; C 2.58; R 2.66; Y 3.3; S 3.06; T 2.73; Q 3.1; H 2.51; M 2.29
D12: L 2.43; C 1.98; G 2.11; S 2.68; H 2.54; W 2.08; F 1.98; K 2.31; Q 2.72; R 3; E 2.43; T 2.91; N 2.76; V 1.59; A 2.21; I 1.81; M 2.59; Y 1.82
I14: C 2.28; V 2.54; N 2.95; F 1.57; G 2.65; P 2.39; D 2.81; S 3.12; Y 2.28; M 2.4; A 3.13; T 2.69; H 2.57; L 2.92; K 3.11; E 2.92; W 1.95; Q 2.66
A15: F 1.98; H 2.1; P 3.29; Y 1.68; G 3.12; N 2.21; L 2.3; V 2.28; K 2.46; C 2.57; Q 3.4; M 2.19; T 2.4; S 2.78; R 2.27; W 1.58; E 3.15; D 2.93; I 1.43
M20: Y 2.89; D 3.97; K 2.76; V 3.1; A 2.78; H 2.25; I 2.14; F 2.06; N 2.87; W 1.95; P 3.25; G 2.53; Q 4.34; C 2.63; S 3; R 2.43; L 2.89; T 2.85; E 2.65
T22: Y 2.47; M 2.48; L 1.96; V 1.68; R 2.85; I 2.39; F 2.09; S 2.77; C 2.24; E 3.46; Q 3.04; P 3.18; W 1.36; D 3.02; K 2.32; A 2.13; H 2.63; N 2.98; G 3.65

Variants of: B2
Experiment: as above
Settings: c terminus: a fixed tail appended

Protein stability index: each site, then its substitutions
K1: I 1.86; V 2.33; T 2.14; M 1.83; A 2.28; R 1.38; F 1.92; E 2.84; D 3.04; Y 1.59; G 2.29; S 2.3; H 1.9; Q 2.23; W 1.98; L 1.83; N 2.12; C 1.7; P 2.58
M2: A 3.17; D 2.75; C 2.28
